Data reported in patent US7294496B1, “Cloned human lysophospholipase” (The Regents of the University of California, priority 2000, dated 2007).

Legend:
Type in all cases: biochemical
[1] = PLA2 activity assay toward DPPC; details: for Activity: 100 mM Hepes
Description: (§1) The protein concentration was determined by the Bio-Rad protein assay, using bovine serum albumin (BSA) as standard. Protein purity was examined using 12% SDS-PAGE and Coomassie blue staining. LysoPLA activity was measured at 40° C. in the assay buier containing LysoPC, 100 mM Tris-HCl (pH 8.0) and 10 mM LMe. Cold 1-palmitoyl-sn-glycero-3-phosphorylcholine (125 μM, unless indicated otherwise) was mixed with 1-[14 C]palmitoyl-sn-glycero-3-phosphorylcholine (100,000 cpm) in a total volume of 0.5 ml. The assay was initiated by adding an aliquot of enzyme solution to the substrate mixture and incubating for the desired time. The released fatty acid was extracted by the modified Dole method and then quantified by scintillation counting. The PLA2 activity assay was carried out, using various ^14C-labeled phospholipid substrates under various conditions as given in the text. The rat brain iPLA2 was purified as described elsewhere (H. C. Yang et al., manuscript in preparation incorporated herein). Human recombinant cPLA2 was a gift from Drs. J. D. Sharp and R. M. Kramer at Lilly Laboratories. 1-[^14C]Palmitoyl-sn-glycero-3-phosphorylcholine and 1-palmitoyl-2-[1-^14C]palmitoyl-sn-glycerol-3-phosphorylcholine were purchased from Amersham. 1-Palmitoyl-2-[1-^14C]arachidonoyl-sn-glycerol-3-phosphorylcholine was purchased from DuPont-NEN. All unlabeled phospholipids were purchased from Avanti Polar Lipids. Triton X-100 (TX-100) and PIP2 were obtained from CalBiochem.
(§2) When we first purified the mouse LysoPLA from P388D1 cells, no other enzymatic activities (PLA1, PLA2, acyltransferase, transacylase and esterase) were found. Therefore, it appears to be a LysoPL-specific LysoPLA. Similar results were obtained for the rat LysoPLA and the relative rates towards different LysoPL substrates were reported [Sugimoto et al., (1996) J. Biol. Chem. 271, 7705-11]. However, a recently sequenced rabbit enzyme that shares high sequence homology (approx. 97%) to the rat/mouse LysoPLA was reported to have both PLA2 and LysoPLA activities [Portilla, et al., […] J. Am. Soc.Nephrol. 9, 1178-86]. The specific activities, however, were only 10 nmol/min/mg for PLA2 activity and 20 nmol/min/mg for LysoPLA activity. The PLA2 activity was also reported to be selective for PlsCho substrate with arachidonic acid at the sn2 position. To determine whether hLysoPLA also expresses PLA2 activity, we have explored its ability to hydrolyze arachidonic acid labeled PlsCho as well as other phospholipid substrates under a variety of conditions.

[2] = PLA2 activity assay toward PAPC; details: for Activity: 100 mM Hepes, pH 7.5, 80 μM Ca2+, 2 mM DTT, 0.1 mg/ml BSA
Description: as §1, §2

[3] = PLA2 activity assay toward plasmenylcholine
Description: as §1
The sn-2 labeled PlsCho (plasmenylcholine or 1-O— (Z)-1P-alkenyl-2-arachidonoyl-sn-glycero-3-phosphocholine) was synthesized as follows. A total of 4 μmol [1-14C]arachidonic acid (from NEN, with specific activity […]) was diluted 10 times with cold arachidonic acid in 250 μl distilled methylene chloride (Fisher Scientific). To this 0.04 mmol p(N,N-dimethyl)amino pyridine (Aldrich) and 0.08 mmol 1,3-dicyclohexyl carbodiimide (Aldrich) were added to yield the arachidonoyl anhydride upon 1 h of stirring. Lysoplasmenylcholine (0.06 mmol, from Serdary) dissolved in 200 μl methylene chloride and 50 μl pyridine (Fisher Scienticc) was added to the arachidonoyl anhydride solution with 0.03 μmol dimethylaminopyridine and left stirring for 8 h. The reaction progress was monitored by thin layer chromatography (Merck) using a mobile phase of chloroform:methanol:triethyl amine:water (65:30:1.5:3.5), and retardation factors were 0.6 and 0.2 for PlsCho and LysoPlsCho, respectively. The separation of the product was carried out by preparative layer chromatography (Merck) in the above mobile system. The reaction yielded a total of 3.6 mg (7.7 μmol) of radiolabeled PlsCho (specific activity 0.18 μCi/μmol) by quantitative phosphate analysis.
as §2

[4] = LysoPLA activity assay (release of fatty acid from 14C-LysoPC)
Description: as §1
To investigate the catalytic properties of the hLy-soPLA, we first determined the specific activity of hLysoPLA as a function of substrate (1-palmitoyl LysoPC) concentration. […] There seems to be some cooperativity, since the data fit to the Hill equation (solid line in FIG. 3) with n=1.53 ? 0.08, kcat=1.34 ? 0.04 μmol/min/mg, and substrate at half-maximal saturation is 12.7±0.9 μM.
TX-100 is often used in the purification and stabilization of membrane-associated proteins. In addition, it is used to change the surface concentration of the substrate in the mixed-micelle assay for mechanistic studies. To determine the dependence of the enzyme activity on the substrate surface concentration, we measured the hLysoPLA activity under two conditions:
(1) the bulk LysoPC concentration (1.125 mM) was kept constant and the TX-100 concentration was varied (FIG. 4A);
(2) the bulk TX-100 concentration (1 mM) was kept constant and the LysoPC concentration was varied (FIG. 4B).
In addition, we have carried out detailed kinetic measurements and analysis to test the surface dilution kinetic model and results are shown in FIG. 4° C. The experimental data were fitted globally to Eq. 1 derived from the model in which hLysoPLA follows the two-step binding kinetics (Scheme 1). That is, hLysoPLA (E) binds first to the mixed-micellar surface (S) and then to the LysoPC substrate (A) presented on the surface.
[formula] [formula] Here, [LysoPC+TX-100] is the total molar concentration in the bulk solution, and {LysoPC®} is the molar fraction of the substrate on the mixed-micellar surface. Calculation of the amount of TX-100 in the micelle takes into account the amount of monomeric detergent in the solution, assuming the critical micelle concentration of TX-100 is 0.25 mM. The fitting parameter Ks represents the dissociation constant (k31/k1) for the mixed-micellar surface, Km represents the apparent Michaelis constant (=(k3+ k32)/k2) on the surface, and Vmax is the catalytic turnover rate.

[5] = Hill equation fit, pure LysoPC (FIG. 3)
[6] = global fit to surface dilution model, LysoPC/TX-100 mixed micelles

B1: hLysoPLA: recombinant human brain lysophospholipase, single 25 kDa polypeptide of 230 amino acids (SEQ ID NO: 2), catalytic triad Ser-119, Asp-174, His-208 (protein, listed as Homo sapiens)
chain: MCGNNMSTPLPAIVPAARKATAAVIFLHGLGDTGHGWAEAFAGIRSSHIKYICPHAPVRPVTLNMNVAMPSWFDIIGLSPDSQEDESGIKQAAENIKALIDQEVKNGIPSNRIILGGFSQGGALSLYTALTTQQKLAGVTALSCWLPLRASLPQGPIGGANRDISILQCHGDCDPLVPLMFGSLTVEKLKTLVNPANVTFKTYEGMMHSSCQQEMMDVKQFIDKLLPPID
**Q.** Which “PLA2 activity toward phosphatidylcholine substrates (in words)” value ([1]; DPPC substrates) does the source give for B1 here?
**A.** no PLA2 activity was found

**Q.** And the Activity ([1]; DPPC/POPS sonicated vesicles (67 μM:33 μM), pH 7.5, 5 mM EDTA or Ca2+, 1 mg/ml BSA)?
**A.** <0.0001 µmol/min/mg

**Q.** And the Activity ([1]; DPPC/TX-100 mixed micelles (100 μM:400 μM), pH 7.5, 2 mM DTT, 5 mM EDTA)?
**A.** <0.0001 µmol/min/mg

**Q.** And the “PLA2 activity toward phosphatidylcholine substrates (in words)” value ([2]; PAPC substrates)?
**A.** no PLA2 activity was found

**Q.** And the Activity ([2]; PAPC/PIP2/TX-100 mixed micelles (97 μM:3 μM:400 μM))?
**A.** <0.0001 µmol/min/mg

**Q.** What about the Activity ([2]; PAPC/TX-100 mixed micelles (100 μM:400 μM)) of the same molecule?
**A.** <0.0001 µmol/min/mg

**Q.** And the Activity ([3]; PisCho sonicated vesicles (100 μM), 100 mM Tris, pH 8.0, 4 mM EGTA, 10 mM βMe)?
**A.** 0.0009 ± 0.0003 µmol/min/mg

**Q.** What about the Activity ([3]; PisCho sonicated vesicles (100 μM), 100 mM Tris, pH 8.0, 150 mM NaCl, 3 mM MgCl2, 10 mM βMe) of the same molecule?
**A.** 0.0006 ± 0.0002 µmol/min/mg

**Q.** And the Activity ([3]; PisCho/TX-100 mixed micelles (100 μM:600 μM), 100 mM Hepes, pH 7.5, 10 mM βMe)?
**A.** 0.0024 ± 0.0004 µmol/min/mg

**Q.** And the “activity toward PlsCho substrate labeled with [14C]arachidonic acid (in words)” value ([3]; mixed micelles or vesicles)?
**A.** did not show any significant activity

**Q.** What about the Hill coefficient n ([4]; Hill equation fit, activity vs 1-palmitoyl LysoPC concentration, 40° C. (FIG. 3)) of the same molecule?
**A.** 1.53

**Q.** And the kcat [4, 5]?
**A.** 1.34 µmol/min/mg

**Q.** And the “substrate at half-maximal saturation” value [4, 5]?
**A.** 12.7 ± 0.9 µM

**Q.** And the Activity ([4]; LysoPC micelles (125 μM), 100 mM Tris, pH 8.0, 10 mM βMe)?
**A.** 1.13 ± 0.03 µmol/min/mg

**Q.** What about the kcat ([4]; Michaelis-Menten fit, LysoPC 1.125 mM constant, TX-100 varied (FIG. 4A)) of the same molecule?
**A.** 1.6 µmol/min/mg

**Q.** What about the kcat ([4]; Michaelis-Menten fit, TX-100 1 mM constant, LysoPC varied (FIG. 4B)) of the same molecule?
**A.** 1.7 µmol/min/mg

**Q.** What about the “Km (apparent Michaelis constant on the surface)” value [4, 6] of the same molecule?
**A.** 12.2±0.9 mol %

**Q.** What about the “Ks (dissociation constant for the mixed-micellar surface)” value [4, 6] of the same molecule?
**A.** 66 ± 7 µM

**Q.** What about the Vmax ([4]; global fit to surface dilution model, LysoPC/TX-100 mixed micelles (FIG. 4C)) of the same molecule?
**A.** 1.37 ± 0.05 µmol/min/mg

**Q.** And the “specific activity toward palmitoyl LysoPC” value ([4]; purified recombinant enzyme, His-Tag removed)?
**A.** about 1.3 μmol/min/mg
